Experimental data from patent publication US8053415B2, “Compounds having RD targeting motifs” (Washington University in St. Louis, priority 2005, dated 2011).
Where a SMILES comes first, the peptide text is derived from it.

Experiments:
[1] = tested on: A549 cell membranes (ABI); assay: ABI binding assay using A549 cell membranes; set-up: species or system human; conditions: compared with purified ABI
Text: [SEQ ID NO:1] as the target receptor, tracer, and reference standard, respectively. Echistatin is a polypeptide that binds purified ABI specifically and irreversibly and the radiolabeled analogue is used widely in ABI binding assays. […] Because of the rearrangement of the RGD peptide sequence, the low binding of cypate-GRD peptide to ABI was expected.

[2] = tested on: A549 tumor; assay: In vivo fluorescence optical imaging and ex vivo organ distribution in A549 tumor-bearing nude mice; conditions: for uptake / retention in A549 tumor: 0.3 μmol per kg via lateral tail vein, fluorescence imaging
Description: All in vivo studies were performed in compliance with the Washington University in St Louis Animal Study Committee's requirements for the care and use of laboratory animals in research. Nude mice (18-22 g) were anesthetized with xylazine/ketamine cocktail via intraperitoneal injection and placed in a supine position. The mice were injected subcutaneously with A549 cells (1×10^6) in the lower back of the mice. Tumor masses were palpable at 5-7 days post implant, which reached 5 mm in 10-15 days. Prior to injection of the probe, the mice were anesthetized as described above. A 29-gauge needle was used to inject the probes into the mouse via the lateral tail vein. The molecular probe (100 μL) was injected via the lateral tail vein at 0.3 μmol per kg of body weight. […] [SEQ ID NO:1] were constituted in a vial, and doses of 0.3 μmol per kg of body weight were injected into the A549 tumor-bearing mice.
A non-invasive in vivo continuous wave fluorescence imaging apparatus was used to visualize the distribution and preferential tissue uptake of the cypate-peptide molecular beacons in the nude mice (Achilefu (2004) Technol. Cancer Res. Treat. 3:393-409, incorporated herein by reference). Light from two laser diodes of nominal wavelength 780 nm and nominal power of 50 mW was launched into a fiber optic bundle. Two laser diodes were used to produce as much uniform illumination of the whole animal or organ parts as possible. The nominal 50 mW of incident power was reduced to about 44 mW at the output of the fiber optic bundle. A de-focusing lens in position after the bundle expanded the beam such that nearly the whole animal was illuminated. A Photometrics CCD camera (16 bit, 1024×1024 pixel, back illuminated, thermoelectric Peltier cooled with forced air) was used to capture the emitted photons. An interference filter (830 nm) was mounted in front of the CCD camera input lens such that only emitted fluorescent light from the contrast agent was imaged. Real-time acquisition, display and data processing software (WinView/32) was used to obtain the optical image. The samples were dissolved in 20% aqueous DMSO and animals were injected with doses of 0.3 μmol/kg body weight via the lateral tail vein. Injected volumes were 100 μL for each mouse. Data analysis consisted of subtracting (pixel by pixel) the pre-injection image from the post injection images, and displaying the false color results. Integration of the relative fluorescence intensities of tumor vs. surrounding tissues indicated the extent of selective uptake of the contrast agent. At the completion of the study, the mice were euthanized and some organ parts were excised and rinsed with water. The tissues were placed under the CCD camera and the fluorescence emission from each organ was measured after excitation with the 780 nm laser sources. Tissue parts, instead of whole organs, were used to minimize problems associated with depth-dependent non-linear fluorescence emission. A statistical program in the WinView package was used to estimate the mean fluorescence intensity per organ part.
In vivo optical imaging studies using the cypate-peptide optical probes were performed and analyzed as described above in Example 1. […]

[3] = tested on: HEK cells; assay: Cell uptake and internalization (Example 3); format: cell-based, human; conditions: within an hour of incubation
Description: (§1) The ABI-positive cells were incubated with cypate or cypate-peptide conjugates at 37° C. for different time points. A549 cells were grown as detailed above. The human glioblastoma cell line, U87, and the human embryonic kidney cell line, HEK, were purchased from ATTC. U87 and HEK cells were maintained in minimum essential medium (MEM) with 2 mM L-glutamine and Earle's BSS adjusted to contain 1.5 g/L sodium bicarbonate, 0.1 mM nonessential amino acids, and 1.0 mM sodium pyruvate, with 10% fetal calf serum, 100 units/mL penicillin, and 100 units/mL streptomycin. Cells were grown on Lab-Tek slides. The medium was replaced and cells were incubated for various times up to 4 h at 37° C. in the presence of 1 μM of the dye conjugated peptides. For fluorescence microscopy, cells were visualized with an Olympus BX61W1 microscope using 775/50 excitation, 845/55 emission. For subcellular localization studies, 25 nM mitotracker green or 50 nM lysotracker red from Molecular Probes (Eugene, Oreg.) was added during the last 15 min or 60 min of incubation, respectively. […] Relative fluorescence was determined for five different areas of each experimental condition using the Slidebook software, and the results were averaged. The average relative fluorescence for each condition was normalized to cells treated with Cyp-GRD peptide.

[4] = tested on: U87 cells; assay: Cell uptake and internalization (Example 3); format: cell-based, human; conditions: within an hour of incubation
Description: as §1

[5] = tested on: A549 cells; assay: Cellular internalization and blocking studies by fluorescence microscopy (Example 1); conditions: 37° C.; for translocation into the nucleus: A549 cells
Description: Cells were grown on LabTek microscope slides, as described above. The medium was removed and cells were incubated at 4° C. or 37° C. in PBS containing 1 μM of one of the peptide conjugates for 30 min. […] The cells were further incubated at 37° C. for 4 h and visualized with a Zeiss LSM510 system using a 633 laser and an LP650 filter.
For antibody blocking studies, cells were preincubated for 30 min at room temperature with 10 μg/ml function-specific monoclonal antibodies anti-αv or anti-β3 integrin subunits (Molecular Probes; Eugene Oreg.) before addition of 1 μM of a cypate-peptide conjugate. For nuclear staining, 0.1 μM TOPO-1 (Molecular Probes) was mixed with mounting medium and applied to the cells. All cells were visualized on an Olympus FV1000 microscope equipped with the appropriate bandwidth filters for cypate conjugates (or cypate-3 conjugates) and TROPO-1.

CC1(C)C(/C=C/C=C/C=C/C=C2/N(CCC(=O)NCC(=O)N[C@@H](CCCNC(=N)N)C(=O)N[C@@H](CC(=O)O)C(=O)N[C@@H](CO)C(=O)N3CCC[C@H]3C(=O)N[C@@H](CCCCN)C(=O)O)c3ccc4ccccc4c3C2(C)C)=[N+](CCC(=O)O)c2ccc3ccccc3c21 [Cyp-GRD, Cypate-GRDSPK] (HELM PEPTIDE1{[CC1(C)C(/C=C/C=C/C=C/C=C2/N(CCC(=O)[*:2])c3ccc4ccccc4c3C2(C)C)=[N+](CCC(=O)O)c2ccc3ccccc3c21].G.R.D.S.P.K}$$$$V2.0)
ABI binding affinity using A549 cell membranes [1]: No improvement in the ABI binding affinity
clearance from blood ([2]; 0.3 μmol per kg i.v.): slow clearance
time post injection after which selective tumor uptake became obvious ([2]; 0.3 μmol per kg i.v.): > 8 h
time the whole animal fluoresced after injection before clearance began ([2]; 0.3 μmol per kg i.v.): up to 2 h
uptake / retention in A549 tumor [2]: preferential uptake of the probes in the tumor
uptake / retention in A549 tumor ([2]; listed as cypate-GRD): preferentially localized
accumulation / retention in nontarget tissues ([2]; 24 h post injection): much lower
tumor uptake compared among the cypate-peptide conjugates ([2]; 24 h post injection): higher uptake in the tumor tissue
internalization in HEK cells [3]: internalization
internalization in U87 cells [4]: internalization
internalization in A549 cells ([5]; 1 μM): internalized
translocation into the nucleus [5]: did not translocate to the nucleus
translocation into the nucleus ([5]; listed as cypate-GRD): not localized in the nucleus
